Assays:
[1] = biological target: T1, scMenB (Synechocystis sp. PCC 6803, UniProt P73495); assay: X-ray crystal structure, […] Å; type: binding; settings: co-crystal, pH 5.70; active site, product analog; chloride at the bicarbonate site
T1 construct: gene menB; recombinant, purified to homogeneity; homohexamer
T1 sequence (P73495 1-275): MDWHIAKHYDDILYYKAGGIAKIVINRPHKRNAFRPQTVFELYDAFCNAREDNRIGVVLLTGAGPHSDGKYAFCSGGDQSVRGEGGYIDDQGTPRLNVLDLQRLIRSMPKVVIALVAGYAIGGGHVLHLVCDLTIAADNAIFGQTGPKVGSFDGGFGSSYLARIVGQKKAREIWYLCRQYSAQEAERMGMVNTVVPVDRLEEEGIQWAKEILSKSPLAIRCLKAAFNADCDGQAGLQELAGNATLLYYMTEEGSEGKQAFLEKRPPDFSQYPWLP

[2] = biological target: T2, ecMenB (Escherichia coli, UniProt P0ABU0); assay: X-ray crystal structure, […] Å; type: binding; settings: co-crystal, pH 5.5; active site, product analog; chloride at the bicarbonate site
T2 construct: gene menB; recombinant; homohexamer, active site formed by two subunits across the trimer-trimer interface

[3] = biological target: T1, scMenB; assay: X-ray crystal structure, […] Å; type: binding; settings: pH 6.0
[4] = substrate: CC(C)(COP(=O)(O)OP(=O)(O)OC[C@H]1O[C@@H](n2cnc3c(N)ncnc32)[C@H](O)[C@@H]1OP(=O)(O)O)[C@@H](O)C(=O)NCCC(=O)NCCSC(=O)CCC(=O)c1ccccc1C(=O)O; assay: purified protein; type: biochemical, Escherichia coli; settings: 200 mM phosphate pH 7.0, 20 mM NaHCO3, OSB-CoA made in situ from SHCHC with MenC and MenE
[5] = biological target: the molecule itself; assay: crystal structure; ecMenB co-crystallised with HNA-CoA; hanging drop, 294 K; 200 mM (NH4)2SO4, 23% PEG 3,350, 100 mM Bis-Tris pH 5.5; protein 10 mg/ml with 10 mM NaHCO3, 10 mM HNA-CoA, 20 mM KCl; 1.84 A
[6] = biological target: the molecule itself; assay: crystal structure; scMenB (5 mg/ml) co-crystallised with 5 mM HNA-CoA; 0.15 M ammonium acetate, 0.3 M ammonium sulfate, 16% PEG 3350, 100 mM Bis-Tris pH 5.70; 2.35 A

CC(C)(COP(=O)(O)OP(=O)(O)OC[C@H]1O[C@@H](n2cnc3c(N)ncnc32)[C@H](O)[C@@H]1OP(=O)(O)O)[C@@H](O)C(=O)NCCC(=O)NCCSC(=O)c1ccc2ccccc2c1O [1-hydroxy-2-naphthoyl-CoA]
X-ray crystal structure, 2.35 Å [1]: structures of the yellowish scMenB: HNA-CoA and colorless scMenB: SA-CoA crystals were also solved | X-ray crystal structure, 1.84 Å [2]: The ecMenB:HNA-CoA complex structure was solved by molecular replacement

CC(C)(COP(=O)(O)OP(=O)(O)OC[C@H]1O[C@@H](n2cnc3c(N)ncnc32)[C@H](O)[C@@H]1OP(=O)(O)O)[C@@H](O)C(=O)NCCC(=O)NCCSC(=O)c1ccccc1O [salicyloyl-CoA]
X-ray crystal structure, 2.00 Å ([3]; co-crystal, active site, product analog, bicarbonate bound): structures of the yellowish scMenB: HNA-CoA and colorless scMenB: SA-CoA crystals were also solved

O=C(O)O [bicarbonate]
X-ray crystal structure, 2.00 Å ([3]; ternary complex with SA-CoA, bicarbonate site): a bicarbonate ion is found in the place of the chloride ion

B1: ecMenB (Escherichia coli K-12; F270A) (protein)
chain: MIYPDEAMLYAPVEWHDCSEGFEDIRYEKSTDGIAKITINRPQVRNAFRPLTVKEMIQALADARYDDNIGVIILTGAGDKAFCSGGDQKVRGDYGGYKDDSGVHHLNVLDFQRQIRTCPKPVVAMVAGYSIGGGHVLHMMCDLTIAADNAIFGQTGPKVGSFDGGWGASYMARIVGQKKAREIWFLCRQYDAKQALDMGLVNTVVPLADLEKETVRWCREMLQNSPMALRCLKAALNADCDGQAGLQELAGNATMLFYMTEEGQEGRNAANQKRQPDFSKFKRNP
notes: recombinant; homohexamer, active site formed by two subunits across the trimer-trimer interface
Km [4]: 19.7 ± 3.9 µM | kcat [4]: 0.0035 ± 0.000167 s⁻¹ | kcat/Km [4]: 180 ± 10 M⁻¹ s⁻¹

B2: ecMenB (Escherichia coli K-12; R267A) (protein)
chain: MIYPDEAMLYAPVEWHDCSEGFEDIRYEKSTDGIAKITINRPQVRNAFRPLTVKEMIQALADARYDDNIGVIILTGAGDKAFCSGGDQKVRGDYGGYKDDSGVHHLNVLDFQRQIRTCPKPVVAMVAGYSIGGGHVLHMMCDLTIAADNAIFGQTGPKVGSFDGGWGASYMARIVGQKKAREIWFLCRQYDAKQALDMGLVNTVVPLADLEKETVRWCREMLQNSPMALRCLKAALNADCDGQAGLQELAGNATMLFYMTEEGQEGANAFNQKRQPDFSKFKRNP
notes: as for B1
Km [4]: 16.6 ± 1.0 µM | kcat [4]: 0.00267 ± 0.000167 s⁻¹ | kcat/Km [4]: 160 ± 20 M⁻¹ s⁻¹

B3: ecMenB (Escherichia coli K-12; K89A) (protein)
chain: MIYPDEAMLYAPVEWHDCSEGFEDIRYEKSTDGIAKITINRPQVRNAFRPLTVKEMIQALADARYDDNIGVIILTGAGDKAFCSGGDQAVRGDYGGYKDDSGVHHLNVLDFQRQIRTCPKPVVAMVAGYSIGGGHVLHMMCDLTIAADNAIFGQTGPKVGSFDGGWGASYMARIVGQKKAREIWFLCRQYDAKQALDMGLVNTVVPLADLEKETVRWCREMLQNSPMALRCLKAALNADCDGQAGLQELAGNATMLFYMTEEGQEGRNAFNQKRQPDFSKFKRNP
notes: as for B1
Km [4]: 43.3 ± 2.0 µM | kcat [4]: 0.0383 ± 0.00133 s⁻¹ | kcat/Km [4]: 890 ± 30 M⁻¹ s⁻¹

B4: 1,4-dihydroxy-2-naphthoyl coenzyme A (DHNA-CoA) synthase from Escherichia coli (enzyme)
chain: MIYPDEAMLYAPVEWHDCSEGFEDIRYEKSTDGIAKITINRPQVRNAFRPLTVKEMIQALADARYDDNIGVIILTGAGDKAFCSGGDQKVRGDYGGYKDDSGVHHLNVLDFQRQIRTCPKPVVAMVAGYSIGGGHVLHMMCDLTIAADNAIFGQTGPKVGSFDGGWGASYMARIVGQKKAREIWFLCRQYDAKQALDMGLVNTVVPLADLEKETVRWCREMLQNSPMALRCLKAALNADCDGQAGLQELAGNATMLFYMTEEGQEGRNAFNQKRQPDFSKFKRNP
notes: DHNA-CoA synthase MenB, Escherichia coli; Crystallised with the small-molecule product analog HNA-CoA; also called ecMenB; MenB
stoichiometry N [5]: 6

B5: 1,4-dihydroxy-2-naphthoyl coenzyme A (DHNA-CoA) synthase from Synechocystis sp. PCC 6803 (enzyme)
chain: MDWHIAKHYDDILYYKAGGIAKIVINRPHKRNAFRPQTVFELYDAFCNAREDNRIGVVLLTGAGPHSDGKYAFCSGGDQSVRGEGGYIDDQGTPRLNVLDLQRLIRSMPKVVIALVAGYAIGGGHVLHLVCDLTIAADNAIFGQTGPKVGSFDGGFGSSYLARIVGQKKAREIWYLCRQYSAQEAERMGMVNTVVPVDRLEEEGIQWAKEILSKSPLAIRCLKAAFNADCDGQAGLQELAGNATLLYYMTEEGSEGKQAFLEKRPPDFSQYPWLP
notes: DHNA-CoA synthase MenB, Synechocystis sp; PCC 6803; wild type; Crystallised with the small-molecule product analogs HNA-CoA or SA-CoA; also called scMenB; MenB
stoichiometry N [6]: 6

Source: publication PMC3637252, “Structural Basis of the Induced-Fit Mechanism of 1,4-Dihydroxy-2-Naphthoyl Coenzyme A Synthase from the Crotonase Fold Superfamily” (PLoS ONE, 2013)
